Laboratory results reported in the supplement of paper PMC10567573.

B1: PLD5 (parent)
chain: WIVDKQHVYIGSAGLDWQSLGQMK
B2: BTBD1 (parent)
chain: TSAEIELPDVEPAAFLALLRFLYS

Variants of: B1
Experiment: protein stability index of a GFP-peptide fusion (GPS, HEK-293T) (PSI 1-6); higher = more stable
Conditions: c terminus: a fixed tail appended
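Also: lentivirally expressed fusions sorted by FACS into six bins by GFP to DsRed ratio, PSI derived from sequencing read proportions per bin multiplied by bin number.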

Protein stability index, by site and new letter:
K24: C 3.61 | H 2.79 | T 2.23 | N 2.36 | I 1.79 | A 2.37 | E 2.51 | D 2.02 | W 2.97 | M 2.58 | S 3.37 | L 2.68 | V 2.15 | R 1.51 | P 2.17 | F 2.05
Y9: V 1.93 | I 1.45 | N 1.81 | E 2.13 | D 1.91 | F 3.1 | H 1.75 | S 2.01 | G 1.96 | W 1.75 | T 2.1 | Q 2.14 | L 1.64 | K 1.33 | M 1.58 | P 2.48 | R 1.41
I10: T 1.81 | E 2.22 | K 2.27 | R 1.65 | W 1.96 | S 1.73 | D 2.41 | F 2.26 | Y 1.73 | V 1.92 | G 1.64 | Q 1.83 | M 2.11 | H 1.93 | N 2.16 | A 1.85 | P 1.79 | C 1.64 | L 2.41
Q22: C 2.35 | K 2.32 | E 1.59 | Y 2.35 | A 2.11 | P 2.01 | I 1.53 | V 1.79 | N 1.67 | G 1.8 | R 1.37 | S 1.97 | H 2.74 | D 1.97 | F 2.59 | L 3.9 | W 2.11 | T 2.97
A13: S 2.14 | N 2.11 | T 2.02 | W 1.56 | G 2.05 | D 1.33 | R 3.3 | P 1.55 | V 3.68 | Q 1.95 | H 1.45 | L 2.44 | Y 1.98 | K 1.96 | E 1.72 | I 3.29 | F 2.5 | C 2.08 | M 1.9
S19: L 3.25 | A 2.23 | D 1.9 | W 2.5 | R 1.83 | P 1.29 | M 1.7 | N 1.45 | Y 1.91 | C 2.62 | T 1.96 | F 2.34 | E 2.06 | Q 1.9 | H 1.81 | V 1.69 | K 2.22
L15: Y 1.67 | M 1.34 | R 1.55 | H 1.67 | I 1.31 | A 1.8 | G 2.2 | D 1.92 | E 2.13 | C 1.47 | F 1.14 | Q 1.47 | N 2.01 | P 1.99 | W 1.51 | T 2 | V 1.54 | S 1.7 | K 2.02
S12: T 1.18 | R 1.6 | E 1.52 | Q 1.6 | P 1.89 | K 2.07 | W 1.92 | M 1.31 | L 2.45 | G 1.72 | V 2.35 | D 1.57 | A 1.65 | Y 1.73 | F 3.2 | H 1.62 | N 1.92 | I 3.48
G14: C 2.19 | K 2.85 | M 1.63 | L 1.64 | E 1.54 | D 2.12 | Y 1.79 | P 2.23 | H 2.29 | F 2.02 | A 1.51 | I 2.97 | R 2.29 | N 2.15 | V 2.6 | T 1.25 | Q 1.64 | S 2.16 | W 3.18
L20: P 2.1 | T 2.01 | K 2.17 | C 2.05 | I 1.97 | D 1.96 | E 2.3 | V 2 | G 2.43 | R 2.13 | Y 1.97 | A 1.65 | S 1.85 | W 1.85 | F 1.61 | M 2.19 | N 2 | Q 1.54 | H 1.76
G11: V 2.02 | M 2.25 | W 2.27 | H 1.92 | N 2.32 | I 2.71 | T 1.71 | E 2.82 | D 1.46 | Y 3.22 | K 1.26 | Q 1.53 | A 1.69 | P 2.12 | F 2.11 | C 2.07 | S 2.22 | R 2.02 | L 2.88
D16: I 1.94 | C 2.39 | R 1.4 | E 2.32 | F 2.16 | T 3.02 | M 2.83 | L 2.44 | S 2.26 | H 1.44 | W 3.03 | P 1.79 | Y 2.52 | Q 1.16 | K 1.68 | N 2.33 | G 2.06 | A 3.8
G21: R 1.86 | Q 1.75 | W 1.68 | A 2.17 | V 2.13 | C 1.91 | T 1.86 | S 1.52 | E 1.25 | P 1.67 | D 2 | H 2.52 | K 1.54 | L 2.88 | Y 1.72 | N 2.41 | M 1.89
Q18: E 1.6 | S 2.16 | H 1.96 | N 2.1 | V 2.73 | F 4.52 | M 3.07 | P 1.85 | I 2.62 | T 2.07 | R 1.47 | G 2.4 | C 3.36 | L 2.15 | D 2.42 | K 1.61 | Y 2.65 | A 1.95
M23: W 2.19 | A 1.55 | G 1.9 | V 1.29 | I 2.15 | Q 2.09 | N 1.9 | F 1.69 | H 1.32 | D 2.15 | Y 1.84 | T 2.06 | L 2.12 | C 2.21 | K 1.69 | P 1.85 | R 1.97 | E 2.11 | S 1.74
W17: F 1.91 | E 2.1 | Y 1.89 | R 1.9 | P 1.64 | T 1.9 | K 1.72 | M 1.38 | V 2.24 | A 1.97 | L 1.64 | D 1.94 | C 1.73 | N 2.17 | S 2.36 | Q 2.09 | G 2.17 | I 1.63 | H 2.35

Variants of: B2
Experiment: as above
Conditions: c terminus: a fixed tail appended

Protein stability index, by site and new letter:
S2: V 1.87 | T 1.74 | I 2.07 | H 1.82 | A 1.72 | N 1.49 | Q 2.24 | C 2.05 | D 1.61 | Y 2.28 | M 1.7 | R 2.09 | G 2.15 | P 2.33 | W 1.91 | E 1.65 | L 1.99 | K 2.39 | F 2
T1: H 2.15 | M 2.46 | P 1.88 | Q 1.97 | R 1.9 | V 1.88 | K 2.68 | D 2.4 | I 1.65 | Y 1.97 | W 1.96 | S 1.65 | L 2.02 | N 2.17 | A 2.22 | C 2.79 | F 1.79 | E 1.66 | G 2.56
A3: G 2.66 | F 1.58 | C 1.98 | E 1.91 | D 2.12
